Literature values, collected in publication PMC4426669.

Biological target: eIF2B1 (Homo sapiens) (UniProt Q14232)

Kd: < 1 nM
Substance: eIF2B1 (from UniProt Q14232)
